In data set [1] the target is T1, L-threonine dehydrogenase (TDH) (Escherichia coli, UniProt P07913).
T1 sequence (P07913 1-341): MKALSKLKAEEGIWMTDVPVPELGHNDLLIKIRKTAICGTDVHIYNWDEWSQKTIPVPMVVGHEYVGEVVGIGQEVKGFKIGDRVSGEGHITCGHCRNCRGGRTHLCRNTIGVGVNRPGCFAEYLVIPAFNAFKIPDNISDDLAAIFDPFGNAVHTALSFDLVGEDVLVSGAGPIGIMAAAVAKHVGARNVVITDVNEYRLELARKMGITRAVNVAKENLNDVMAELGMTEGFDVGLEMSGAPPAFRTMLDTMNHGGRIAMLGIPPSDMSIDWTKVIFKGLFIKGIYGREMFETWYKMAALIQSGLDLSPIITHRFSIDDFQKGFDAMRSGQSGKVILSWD
Briefly: fluorimetric NADH formation assay, titration at […] L-Thr and […] NAD+; also affinity chromatography from E. coli lysate on immobilized compound […]. The class given is biochemical.

Substrate in data set [2]: C[C@@H](O)[C@H](N)C(=O)O
Briefly: purified protein. The following applies: NAD+; Zn2+ cooperative binding of L-Thr; pH 8.4; 25.0 °C. Type of data set: biochemical, Escherichia coli.

Substrate in data set [3]: NC(=O)c1ccc[n+]([C@@H]2O[C@H](COP(=O)([O-])OP(=O)(O)OC[C@H]3O[C@@H](n4cnc5c(N)ncnc54)[C@H](O)[C@@H]3O)[C@@H](O)[C@H]2O)c1
Briefly: purified protein. Type of data set: biochemical, Escherichia coli. The following applies: Zn2+ non-cooperative binding; pH 8.4; 25.0 °C; varied: cofactor.

Structures can show the parent of a compound that is named as a salt.

With `NCCc1c[nH]n(-c2ccccn2)c1=O` [compound 1, 4-(2-aminoethyl)-2-(pyridin-2-yl)-1,2-dihydro-3H-pyrazol-3-one dihydrochloride], it took 50 ± 10 µM to reach a half-maximal effect in data set [1] (EC50).

B1: L-threonine dehydrogenase (TDH) (Escherichia coli K-12) (protein)
chain: MKALSKLKAEEGIWMTDVPVPELGHNDLLIKIRKTAICGTDVHIYNWDEWSQKTIPVPMVVGHEYVGEVVGIGQEVKGFKIGDRVSGEGHITCGHCRNCRGGRTHLCRNTIGVGVNRPGCFAEYLVIPAFNAFKIPDNISDDLAAIFDPFGNAVHTALSFDLVGEDVLVSGAGPIGIMAAAVAKHVGARNVVITDVNEYRLELARKMGITRAVNVAKENLNDVMAELGMTEGFDVGLEMSGAPPAFRTMLDTMNHGGRIAMLGIPPSDMSIDWTKVIFKGLFIKGIYGREMFETWYKMAALIQSGLDLSPIITHRFSIDDFQKGFDAMRSGQSGKVILSWD
On to B1, for which, in “purified protein [2]”, the K0.5 came to 280 ± 10 µM and the Vmax was determined as 6 µM/min. Besides, in “purified protein [3]”, the K0.5 is listed as 43 ± 3 µM and the Vmax amounted to 3.42 µM/min.

As usually defined, the EC50 is the concentration needed to bring the measured effect to its halfway point. Low values mean a more potent agent, high ones a less potent agent. Broadly, the Vmax is the top rate of the reaction or transport when substrate is in excess.

(Values after publication PMC12693531, “Cooperativity in Escherichia coli L-Threonine Dehydrogenase and Its Inhibition by an Antibacterial N-Pyridylpyrazolone Derivative” (International Journal of Molecular Sciences, 2025).)
